Earlier results on one substance are cited in article PMC6535718.

In this data set the target is Bfd (Pseudomonas aeruginosa) (UniProt Q9HY80).

pKd: −log10 of the molar value.

BfrB, sequence (Q9HY79 whole entry): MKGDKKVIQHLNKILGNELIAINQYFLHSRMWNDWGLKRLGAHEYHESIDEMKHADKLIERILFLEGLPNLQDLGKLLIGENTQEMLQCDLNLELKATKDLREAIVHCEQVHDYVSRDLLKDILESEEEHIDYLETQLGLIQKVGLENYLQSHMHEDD
Bfd (Pseudomonas aeruginosa), sequence (Q9HY80 whole entry): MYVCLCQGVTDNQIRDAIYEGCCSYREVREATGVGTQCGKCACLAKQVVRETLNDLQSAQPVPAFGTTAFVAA

The pKd is the negative decadic logarithm of the Kd, by convention in mol/L. With BfrB (from UniProt Q9HY79), the pKd was 5.47.
